Experimental data from paper PMC5472279, “Genetic, structural, and chemical insights into the dual function of GRASP55 in germ cell Golgi remodeling and JAM-C polarized localization during spermatogenesis” (PLoS Genetics, 2017).
One block for each binder: values may come before it. Ends that are not written are not given here. * marks the point of attachment. Biotin = O=C1N[C@H]2[C@H](CS[C@H]2CCCCC(=O)*)N1

What was measured:
Conditions in all cases: both partners purified
[1] = target: T1, GST-GRASP55 FL (mGRASP55 Full-length, aa 2-451) (mouse, UniProt Q99JX3 2-451); assay: AlphaScreen or HTRF; GST fusion protein, anti-GST antibody coupled to terbium cryptate (1 nM), streptavidin-d2 (1.25 nM), biotinylated peptide (6 nM), competed with non-biotinylated peptide or the compound Graspin; 0.05 M HEPES, 0.15 M NaCl, 0.25% BSA pH 7.3, 18 h, 4°C
T1 construct: GRASP55, mouse, aa 2-451, called full-length (FL); Forward primers with and without a thrombin cleavage site were used; also called full-length GRASP55 protein; source: E. coli BL21 (DE3), purified (Glutathione sepharose 4B); not shown: GST, N-terminal, kept

[2] = target: T2, GST-GRASP55 FL (GST-tagged GRASP55 full-length, aa 2-451) (mouse, UniProt Q99JX3 2-451); assay: ITC; GRASP55 protein in the cell (70-150 uM), JAM peptide in the syringe (800-2250 uM); 298 K (25 °C); 100 mM NaPO4 buffer pH 7.5; MicroCal ITC200; one-site fit
T2 construct: Gateway cloning into pDEST15; also called mGRASP55 Full-length (FL); Golgi reassembly stacking protein of 55 kDa; source: E. coli BL21 (DE3), purified (Glutathione sepharose 4B); not shown: GST, N-terminal, kept

[3] = target: His-GRASP55 PDZ12 (Histidine-tagged PDZ tandem of GRASP55, aa 2-208) (mouse, UniProt Q99JX3 2-208); assay: as above
[4] = target: T1, GST-GRASP55 FL (mGRASP55 Full-length, …); assay: AlphaScreen or HTRF + ITC; the text names HTRF or ITC for the values without telling which; GST-GRASP55 FL with JAM peptides; HTRF: biotinylated peptide competed with unlabeled peptide, 0.05 M HEPES, 0.15 M NaCl, 0.25% BSA pH 7.3, 18 h, 4°C; ITC: peptide in the syringe, protein in the cell, 100 mM NaPO4 pH 7.5, 25°C
[5] = target: GRASP55 PDZ12, untagged PDZ tandem of GRASP55 (mouse, UniProt Q99JX3 2-208); assay: ITC; GRASP55 protein in the cell (70-150 uM), JAM peptide in the syringe (800-2250 uM); 298 K (25 °C); 100 mM NaPO4 buffer pH 7.5; MicroCal ITC200; one-site fit

binding result [1]: binds
B1: Biotinylated 19-mer peptide of the carboxy-terminal sequence of JAM-B (peptide)
peptide: Biotin-SKVTTMSENDFKHTKSFII
notes: JAM-B, mouse, carboxy-terminal 19 amino acids; source: synthetic peptide (Covalab, France)

binding result [1]: binds
B2: Biotinylated 19-mer peptide of the carboxy-terminal sequence of JAM-A (peptide)
peptide: Biotin-SQPSTRSEGEFKQTSSFLV
notes: JAM-A, carboxy-terminal 19 amino acids; source: synthetic peptide (Covalab, France)

Kd [4]: 27 µM
B4: Unlabeled (non-biotinylated) JAM-A carboxy-terminal 19-mer peptide (peptide)
peptide: SQPSTRSEGEFKQTSSFLV
notes: JAM-A, carboxy-terminal 19 amino acids; the homologous non-biotinylated form of the printed biotinylated peptide; source: synthetic peptide

binding result [1]: binds
B9: Biotinylated 19-mer peptide of the carboxy-terminal sequence of JAM-C (peptide)
peptide: Biotin-NYIRTSEEGDFRHKSSFVI
notes: JAM-C, mouse, carboxy-terminal 19 amino acids; source: synthetic peptide (Covalab, France)

The remaining lines, values behind:

B3: JAM-A peptide, carboxy-terminal 19-mer (peptide)
peptide: SQPSTRSEGEFKQTSSFLV
notes: Junctional Adhesion Molecule-A (JAM-A), carboxy-terminal 19 amino acids; source: synthetic peptide (Covalab, France)
stoichiometry N [2]: 0.8 | Kd [3]: 14 ± 1 µM | stoichiometry N [3]: 0.9

B5: JAM-B peptide, carboxy-terminal 19-mer (JAM-B_P19) (peptide)
peptide: SKVTTMSENDFKHTKSFII
notes: Junctional Adhesion Molecule-B (JAM-B), mouse, carboxy-terminal 19 amino acids; source: synthetic peptide (Covalab, France)
stoichiometry N [2]: 0.9 | Kd [3]: 1.2 ± 0.1 µM | stoichiometry N [3]: 1.3

B6: JAM-C_P19, peptide corresponding to the C-terminal 19-mer of mouse JAM-C (unlabeled) (peptide)
peptide: NYIRTSEEGDFRHKSSFVI
notes: JAM-C, mouse, C-terminal 19-mer; the homologous non-biotinylated form of the printed biotinylated peptide; also called JAM-C peptide; source: synthetic peptide
Kd [4]: 3.7 µM

B7: JAM-C peptide, carboxy-terminal 19-mer (JAM-C_P19) (peptide)
peptide: NYIRTSEEGDFRHKSSFVI
notes: Junctional Adhesion Molecule-C (JAM-C), mouse, encoded by Jam3, carboxy-terminal 19 amino acids; source: synthetic peptide (Covalab, France)
stoichiometry N [2]: 1 | Kd [5]: 3.8 ± 0.1 µM | stoichiometry N [5]: 1.1 | Kd [3]: 7.1 ± 0.1 µM | stoichiometry N [3]: 1

B8: JAM-B_P19, peptide corresponding to the C-terminal 19-mer of mouse JAM-B (unlabeled) (peptide)
peptide: SKVTTMSENDFKHTKSFII
notes: JAM-B, mouse, C-terminal 19-mer; the homologous non-biotinylated form of the printed biotinylated peptide; also called JAM-B peptide; source: synthetic peptide
Kd [4]: 4.9 µM
